Assay results: publication PMC3670934, “Milligram Production and Biological Activity Characterization of the Human Chemokine Receptor CCR3” (PLoS ONE, 2013)

B1: CCL11 (eotaxin), home-made recombinant (ligand)
chain: not shown
notes: CCL11 (eotaxin), endogenous ligand of human CCR3; The detailed protocol is said to be submitted in a separate manuscript; Probably the mature chemokine without its signal peptide (surmised); also called eotaxin/CCL11; home-made CCL11
B2: CCL24 (eotaxin-2), home-made recombinant (ligand, human, UniProt O00175 27-119, looked up)
chain: VVIPSPCCMFFVSKRIPENRVVSYQLSSRSTCLKAGVIFTTKKGQQFCGDPKQEWVQRYMKNLDAKQKKASPRARAVAVKGPVQRYPGNQTTC
notes: CCL24 (eotaxin-2), endogenous ligand of human CCR3; The detailed protocol is said to be submitted in a separate manuscript; Probably the mature chemokine without its signal peptide (surmised); also called eotaxin-2/CCL24; home-made CCL24
B3: commercial recombinant human CCL11 (PeproTech) (ligand)
chain: not shown
notes: recombinant human chemokine CCL11, bought; No catalogue number printed; probably the mature chemokine (surmised); also called CCL11 from PeproTech; commercial CCL11; source: bought: PeproTech (USA)
B4: commercial recombinant human CCL24 (PeproTech) (ligand, UniProt O00175 27-119, looked up)
chain: B2 chain
notes: recombinant human chemokine CCL24, bought; No catalogue number printed; probably the mature chemokine (surmised); also called CCL24 from PeproTech; commercial CCL24; source: bought: PeproTech (USA)
B5: Human chemokine receptor CCR3 with a C-terminal 10-His tag (receptor, UniProt P51677 1-355, looked up)
chain: MTTSLDTVETFGTTSYYDDVGLLCEKADTRALMAQFVPPLYSLVFTVGLLGNVVVVMILIKYRRLRIMTNIYLLNLAISDLLFLVTLPFWIHYVRGHNWVFGHGMCKLLSGFYHTGLYSEIFFIILLTIDRYLAIVHAVFALRARTVTFGVITSIVTWGLAVLAALPEFIFYETEELFEETLCSALYPEDTVYSWRHFHTLRMTIFCLVLPLLVMAICYTGIIKTLLRCPSKKKYKAIRLIFVIMAVFFIFWTPYNVAILLSSYQSILFGNDCERSKHLDLVMLVTEVIAYSHCCMNPVIYAFVGERFRKYLRHFFHRHLLMHLGRYIPFLPSEKLERTSSVSPSTAEPELSIVF
notes: human chemokine receptor CCR3; theoretical molecular weight with the tag 42 kDa; The form full length is read from the printed primers (start codon to the last codons of the gene, then tag and stop); By the reverse primer two glycine codons seem to lie between the last CCR3 residue and the ten histidines (surmised from the primer); also called hCCR3; source: also in detergent cell lysate; not …

Key:
[1] = target: B5; test: SPR; Biacore T100; His-tagged hCCR3 immobilised on a Ni-activated NTA sensor chip, chemokine flowed at 30 µl/min; 25°C; 10 mM HEPES, 0.15 M NaCl, 0.1% (wt/vol) FC-14, pH 7.4; hCCR3 purified in FC-14; 1:1 binding model, KD = kd/ka; settings: both partners purified
[2] = target: B5; test: SPR; Biacore T100; His-tagged hCCR3 immobilised on a Ni-activated NTA sensor chip, chemokine flowed at 30 µl/min; 25°C; 10 mM HEPES, 0.15 M NaCl, 0.1% (wt/vol) DDM, pH 7.4; hCCR3 purified in DDM; 1:1 binding model, KD = kd/ka; settings: both partners purified
[3] = target: B5; test: SPR; Biacore T100; His-tagged hCCR3 immobilised on a Ni-activated NTA sensor chip, chemokine flowed at 30 µl/min; 25°C; 10 mM HEPES, 0.15 M NaCl, 0.1% (wt/vol) FC-14, pH 7.4; hCCR3 purified in FC-14; 1:1 binding model, KD = kd/ka; settings: both partners purified; remark: listed apart in the source
[4] = target: B5; test: SPR; Biacore T100; His-tagged hCCR3 immobilised on a Ni-activated NTA sensor chip, chemokine flowed at 30 µl/min; 25°C; 10 mM HEPES, 0.15 M NaCl, 0.1% (wt/vol) DDM, pH 7.4; hCCR3 purified in DDM; 1:1 binding model, KD = kd/ka; settings: both partners purified; remark: listed apart in the source
[5] = target: the molecule itself; test: SDS-PAGE and western blot; hCCR3 after Ni affinity chromatography in FC-14; 4-12% NuPAGE Bis-Tris gel, LDS sample buffer with reducing agent, not heated; anti-His blot; bands at about 34, 58, 82 and 115 kDa

Row | Binder | Kd [1] | koff [1] | kon [1] | Kd [2] | koff [2] | kon [2] | kon [3] | Kd [4] | binding result [5]
1 | B1 | 1300 nM | 0.063 s⁻¹ | 49000 M⁻¹ s⁻¹ | 70 nM | 0.017 s⁻¹ | 250000 M⁻¹ s⁻¹ | – | – | –
2 | B2 | 1600 nM | 0.037 s⁻¹ | 22000 M⁻¹ s⁻¹ | 58 nM | 0.003 s⁻¹ | 51000 M⁻¹ s⁻¹ | 23000 M⁻¹ s⁻¹ | – | –
3 | B3 | – | – | – | – | – | – | – | 730 nM | –
4 | B4 | – | – | – | – | – | – | – | 210 nM | –
5 | B5 | – | – | – | – | – | – | – | – | binds
